Changes are numbered by the printed parent chain. In names and notes the source's numbering stands.
B1: HsCNNM4 extracellular domain A149S (Jalili syndrome mutation) (domain or fragment, human, UniProt Q6P4Q7 44-175, looked up)
chain: GTIVGMRLASCNKSCGTNPDGIIFVSEGSTVNLRLYGYSLGNISSNLISFTEVDDAETLHKSTSCLELTKDLVVQQLVNVSRGNTSGVLVVLTKFLRRSESMKLYSLCTRAQPDGPWLKWTDKDSLLFMVEE
B2: HsCNNM4 extracellular domain (residues 44–175), wild type (domain or fragment, human, UniProt Q6P4Q7 44-175, looked up)
chain: B1 chain with S106A
B3: HsCNNM4 extracellular domain (residues 44–175) R50A (domain or fragment, human, UniProt Q6P4Q7 44-175, looked up)
chain: B1 chain with R7A, S106A
B4: HsCNNM4 extracellular domain N85D (Jalili syndrome mutation) (domain or fragment, human, UniProt Q6P4Q7 44-175, looked up)
chain: B1 chain with N42D, S106A
B5: HsCNNM4 extracellular domain E95Q (Jalili syndrome mutation) (domain or fragment, human, UniProt Q6P4Q7 44-175, looked up)
chain: B1 chain with E52Q, S106A
B6: HsCNNM4 extracellular domain M145T (Jalili syndrome mutation) (domain or fragment, human, UniProt Q6P4Q7 44-175, looked up)
chain: B1 chain with M102T, S106A

Molecular target: EgCNNM4 extracellular domain (residues 25–153), wild type (Echinococcus granulosus)
Test: AUC

Stoichiometry N, 2:
EgCNNM4 extracellular domain (residues 25–153), wild type (domain or fragment)

Molecular target: the molecule itself
Test: AUC

Stoichiometry N, 2:
B1
B2
B3
B4
B5
B6
